The RNAGym collection of RNA variant scans (doi:10.1093/molbev/msab373)

B1: Azoarcus group I ribozyme (parent)
chain: GUGCCUUGCGCCGGGAAACCACGCAAGGGAUGGUGUCAAAUUCGGCGAAACCUAAGCGCCCGCCCGGGCGUAUGGCAACGCCGAGCCAAGCUUCGGCGCCUGCGCCGAUGAAGGUGUAGAGACUAGACGGCACCCACCUAAGGCAAACGCUAUGGUGAAGGCAUAGUCCAGGGAGUGGCGAAAGUCACACAAACCGG

Variants of: B1
Experiment: reverse-splicing fitness (ratio to wild type); higher = more active; in vitro selection; Mg2+ level not given
Method in brief: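 An in vitro group I ribozyme library with randomized positions was T7-transcribed and gel-purified. In triplicate, 10 pmol RNA in EPPS pH 7.5 was reacted with 50 pmoles of a 30-nt RNA substrate for 1 h at 37 °C across several added MgCl2 levels (1–48 mM), then stopped with EDTA. Products were reverse transcribed from a substrate-complementary primer, PCR-amplified and sequenced (HiSeq 4000). Fitness is a variant's read proportion after selection over that before, normalised to wild type.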

Row | Variant | reverse-splicing fitness
1 | C82U A111C A120C A145U C150A C169A U176G | 0.00614
2 | C82U A111C A120C A145U C150A C169A U176A | 0.0117
3 | C82U A111C A120C A145U C150A C169A U176C | 0.00844
4 | C82U A111C A120C A145U C150G U176A | 0.00578
5 | C82U A111C A120C A145U C150G U176C | 0.00923
6 | C82U A111C A120C A145C C169G U176G | 0.00555
7 | C82U A111C A120C A145C C169G U176C | 0.015
8 | C82U A111C A120C A145C C169G U176A | 0.0195
9 | C82U A111C A120C A145U C150A C169G U176G | 0.00587
10 | C82U A111C A120C A145U C150A C169G U176C | 0.015
11 | C82U A111C A120C A145U C150A C169G U176A | 0.0132
12 | C82U A111C A120C A145U C150A C169U U176G | 0.00706
13 | C82U A111C A120C A145U C150A C169U U176A | 0.0184
14 | C82U A111C A120C A145U C150A C169U U176C | 0.014
15 | C82U A111C A120C A145U C150G C169A U176G | 0.00632
16 | C82U A111C A120C A145U C150G C169A U176C | 0.00938
17 | C82U A111C A120C A145U C150G C169A U176A | 0.00888
18 | C82U A111C A120C A145U C150G | 0.00723
19 | C82U A111C A120C A145U C150A | 0.0082
20 | C82U A111C A120C A145C C169U U176C | 0.0147
21 | C82U A111C A120C A145C C169U U176A | 0.0162

Row | Variant | reverse-splicing fitness
22 | C82U A111C A120C A145C C169U U176G | 0.00426
23 | C82U A111C A120C A145C | 0.0222
24 | C82U A111C A120C A145U | 0.028
25 | C82U A111C A120C A145G | 0.0265
26 | C82U A111C A120C A145C C150G U176G | 0.00262
27 | C82U A111C A120C A145C C150G U176A | 0.00512
28 | C82U A111C A120C A145C C150G U176C | 0.00717
29 | C82U A111C A120C A145G C150G C169G U176C | 0.011
30 | C82U A111C A120C A145G C150G C169G U176G | 0.00542
31 | C82U A111C A120C A145G C150G C169G U176A | 0.00967
32 | C82U A111C A120C A145C C150U C169G U176A | 0.0188
33 | C82U A111C A120C A145C C150U C169G U176C | 0.0118
34 | C82U A111C A120C A145C C150U C169G U176G | 0.00566
35 | C82U A111C A120C A145G C150A U176A | 0.00976
36 | C82U A111C A120C A145G C150A U176C | 0.0208
37 | C82U A111C A120C A145G C150A U176G | 0.00689
38 | C82U A111C A120C A145C C150U C169U | 0.0108
39 | C82U A111C A120C A145C C150U C169G | 0.00644
40 | C82U A111C A120C A145C C150U C169A | 0.00742
41 | C82U A111C A120C A145U C150G C169U U176C | 0.0132
42 | C82U A111C A120C A145U C150G C169U U176A | 0.00839

Row | Variant | reverse-splicing fitness
43 | C82U A111C A120C A145U C150G C169U U176G | 0.00581
44 | C82U A111C A120C A145C C150A C169U U176C | 0.0117
45 | C82U A111C A120C A145C C150A C169U U176G | 0.00596
46 | C82U A111C A120C A145C C150A C169U U176A | 0.0156
47 | C82U A111C A120C A145C C150G C169U U176G | 0.00551
48 | C82U A111C A120C A145C C150G C169U U176A | 0.0102
49 | C82U A111C A120C A145C C150G C169U U176C | 0.0117
50 | C82U A111C A120C A145G C150G C169U U176C | 0.0122
51 | C82U A111C A120C A145G C150G C169U U176G | 0.007
52 | C82U A111C A120C A145G C150G C169U U176A | 0.0111
53 | C82U A111C A120C A145G C150U C169G U176G | 0.00547
54 | C82U A111C A120C A145G C150U C169G U176C | 0.0151
55 | C82U A111C A120C A145G C150U C169G U176A | 0.0115
56 | C82U A111C A120C A145C C150G C169A | 0.00861
57 | C82U A111C A120C A145C C150G C169G | 0.00681
58 | C82U A111C A120C A145C C150G C169U | 0.00884
59 | C82U A111C A120C A145C C150G C169A U176A | 0.00661
60 | C82U A111C A120C A145C C150G C169A U176G | 0.00633
61 | C82U A111C A120C A145C C150G C169A U176C | 0.00704
62 | C82U A111C A120C A145C C150U C169U U176C | 0.0122
63 | C82U A111C A120C A145C C150U C169U U176A | 0.0145

Row | Variant | reverse-splicing fitness
64 | C82U A111C A120C A145C C150U C169U U176G | 0.0068
65 | C82U A111C A120C A145G C150U C169A U176C | 0.014
66 | C82U A111C A120C A145G C150U C169A U176A | 0.0123
67 | C82U A111C A120C A145G C150U C169A U176G | 0.00622
68 | C82U | 0.643
69 | C82U A111C A120C A145G C150A C169G U176A | 0.015
70 | C82U A111C A120C A145G C150A C169G U176G | 0.00635
71 | C82U A111C A120C A145G C150A C169G U176C | 0.0245
72 | C82U A111C A120C A145C C150U | 0.0104
73 | C82U A111C A120C A145C C150A | 0.0072
74 | C82U A111C A120C A145C C150G | 0.00813
75 | C82G U176C | 0.352
76 | C82G U176A | 0.364
77 | C82G U176G | 0.14
78 | C82U A111C A120C A145G C150G C169A U176C | 0.0116
79 | C82U A111C A120C A145G C150G C169A U176G | 0.00708
80 | C82U A111C A120C A145G C150G C169A U176A | 0.0111
81 | C82U A111C A120C A145C C169U | 0.0105
82 | C82U A111C A120C A145C C169G | 0.00865
83 | C82U A111C A120C A145C C169A | 0.00667
